Test results: patent publication US20210324099A1 (Chugai, published 2021)
Each block holds one binder with its values, some of them ahead of it.

How the values were obtained:
[1] = molecular target: T1, hIL6R (human, UniProt P08887 20-357); assay: SPR 37C; AMP 100 uM
T1 construct: Purified from culture supernatant of a CHO line; whole entry named; also called human interleukin 6 receptor (purified antigen from hIL6R-CHO supernatant)
T1 sequence: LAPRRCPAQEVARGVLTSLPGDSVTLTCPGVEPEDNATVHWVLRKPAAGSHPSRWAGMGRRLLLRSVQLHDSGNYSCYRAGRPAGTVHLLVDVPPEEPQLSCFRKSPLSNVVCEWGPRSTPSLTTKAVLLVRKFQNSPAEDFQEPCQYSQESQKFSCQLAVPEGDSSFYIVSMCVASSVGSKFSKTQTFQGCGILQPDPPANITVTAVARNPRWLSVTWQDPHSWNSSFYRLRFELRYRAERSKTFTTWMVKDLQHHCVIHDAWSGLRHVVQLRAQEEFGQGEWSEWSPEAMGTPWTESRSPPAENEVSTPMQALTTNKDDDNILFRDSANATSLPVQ

[2] = molecular target: T1, hIL6R; assay: SPR 37C; ADP 10 uM; ADP 10 uM
Procedure: (§1) Affinity analysis for hIL6R in the presence of each ATP concentration of 0, 1, 10, and 100 μM was performed on Biacore T200 using the antibodies described in Table 63. Measurements were performed at a flow rate of 10 μL/min, interaction time of 1 min, dissociation time of 1 min, and single cycle kinetics at 37° C. For the buffer, 20 mM ACES, 150 mM NaCl, 2 mM MgCl₂, and 0.05% Tween20, pH 7.4 containing different concentrations (0, 1, 10, and 100 μM) of ATP was used. The accessory Biacore Evaluation Software of Biacore T200 was used for analysis, and the 1:1 Langmuir binding model was used for the fitting model.
(§2) Antibodies with a response of 10 RU or less at the time of measurement were considered unanalyzable and are designated as N.D.

[3] = molecular target: T1, hIL6R; assay: SPR 37C; ADP 100 uM; ADP 100 uM
Procedure: as §1, §2

[4] = molecular target: T1, hIL6R; assay: SPR 37C, mean; ATP 1 uM; ATP 1 uM; mean
Procedure: (§3) Measurements were performed at a flow rate of 10 μL/min, interaction time of 1 min, dissociation time of 1 min, and single cycle kinetics at 37° C. For the buffer, 20 mM ACES, 150 mM NaCl, 2 mM MgCl₂, and 0.05% Tween20, pH 7.4 containing different concentrations (0, 1, 10, and 100 μM) of ATP was used. The accessory Biacore Evaluation Software of Biacore T200 was used for analysis, and the 1:1 Langmuir binding model was used for the fitting model.

[5] = molecular target: T1, hIL6R; assay: SPR 37C, mean; ATP 10 uM; ATP 10 uM; mean
Procedure: as §3

[6] = molecular target: T1, hIL6R; assay: SPR 37C, mean; ATP 100 uM; ATP 100 uM; mean
Procedure: as §3

[7] = molecular target: T1, hIL6R; assay: SPR 37C; ADP 10 uM
Procedure: as §1, §2

[8] = molecular target: T1, hIL6R; assay: SPR 37C; AMP 10 uM
Procedure: as §1, §2

[9] = molecular target: T1, hIL6R; assay: SPR 37C; ADP 100 uM
Procedure: as §1, §2

[10] = molecular target: T1, hIL6R; assay: SPR 37C, mean; ATP 0 uM
Procedure: as §3

[11] = molecular target: T1, hIL6R; assay: SPR 37C, mean; ATP 1 uM
Procedure: as §3

[12] = molecular target: T1, hIL6R; assay: SPR 37C, mean; ATP 10 uM
Procedure: as §3

[13] = molecular target: T1, hIL6R; assay: SPR 37C, mean; ATP 100 uM
Procedure: as §3

Kd [1]: 1.81 µM
Kd [2]: 10.3 µM
Kd [3]: 0.296 µM
Kd [4]: 2.38 µM
Kd [5]: 0.32 µM
Kd [6]: 0.0483 µM
B1: H0041-G4T1/L1088-lam1 (antibody, human IgG4 S228P, lambda, V domains shown)
VH: EVQLVESGGDLVKPGGGLRLSCAASGFTFSSYTMNWVRQAPGKGLEWVSSISSQSYHIYYADSVKGRFTISRDNAKNSLYLQMNSLRAEDTAVYYCARYGKLYSLNWVFDYWGQGTLVTVSS
VL: QSALTQPPSASGSPGQTVTISCTGTSTDVGDYAYVSWYQQHPGKAPKLMIYYVSKKPDGVPDRFSGSKSGNTASLTVSGLQAEDEADYFCSLRSPGPYPLFGGGTKLTVLG

Kd [7]: 0.00564 µM
Kd [8]: 0.00533 µM
Kd [9]: 0.00596 µM
Kd [1]: 0.00546 µM
Kd [10]: 0.017 µM
Kd [11]: 0.0188 µM
Kd [12]: 0.0179 µM
Kd [13]: 0.018 µM
B2: MRAH-G4T1/MRAL-k0 (antibody, human IgG4 S228P, kappa, V domains shown)
VH: QVQLQESGPGLVRPSQTLSLTCTVSGYSITSDHAWSWVRQPPGRGLEWIGYISYSGITTYNPSLKSRVTMLRDTSKNQFSLRLSSVTAADTAVYYCARSLARTTAMDYWGQGSLVTVSS
VL: DIQMTQSPSSLSASVGDRVTITCRASQDISSYLNWYQQKPGKAPKLLIYYTSRLHSGVPSRFSGSGSGTDFTFTISSLQPEDIATYYCQQGNTLPYTFGQGTKVEIKR
notes: Non-switch control antibody
